Measured values from publication PMC4664897, “Neurodegenerative disease-associated mutants of a human mitochondrial aminoacyl-tRNA synthetase present individual molecular signatures” (Scientific Reports, 2015).

Assays:
[1] = target: the molecule itself; assay: SEC + other: SAXS; HPLC-SEC (Agilent Bio SEC-3, 15 °C) directly upstream of the SAXS cell; WT, Q184K and R263Q loaded at 7.4, 10 and 14 mg/ml; mobile phase 100 mM HEPES-Na pH 7.5, 250 mM NaCl, 5% glycerol, 1 mM TCEP; oligomer from Rg and Porod volume of each peak
[2] = target: the molecule itself; assay: dynamic light scattering; 2 mg/ml in 100 mM potassium phosphate pH 7.5, 50 mM KCl, 0.1 mM EDTA, 10 mM β-mercaptoethanol, 10% glycerol, 20 °C; hydrodynamic diameter

B1: wild-type human mitochondrial aspartyl-tRNA synthetase (mt-AspRS) (enzyme)
chain: IPEFSSFVVRTNTCGELRSSHLGQEVTLCGWIQYRRQNTFLVLRDFDGLVQVIIPQDESAASVKKILCEAPVESVVQVSGTVISRPAGQENPKMPTGEIEIKVKTAELLNACKKLPFEIKNFVKKTEALRLQYRYLDLRSFQMQYNLRLRSQMVMKMREYLCNLHGFVDIETPTLFKRTPGGAKEFLVPSREPGKFYSLPQSPQQFKQLLMVGGLDRYFQVARCYRDEGSRPDRQPEFTQIDIEMSFVDQTGIQSLIEGLLQYSWPNDKDPVVVPFPTMTFAEVLATYGTDKPDTRFGMKIIDISDVFRNTEIGFLQDALSKPHGTVKAICIPEGAKYLKRKDIESIRNFAADHFNQEILPVFLNANRNWNSPVANFIMESQRLELIRLMETQEEDVVLLTAGEHNKACSLLGKLRLECADLLETRGVVLRDPTLFSFLWVVDFPLFLPKEENPRELESAHHPFTAPHPSDIHLLYTEPKKARSQHYDLVLNGNEIGGGSIRIHNAELQRYILATLLKEDVKMLSHLLQALDYGAPPHGGIALGLDRLICLVTGSPSIRDVIAFPKSFRGHDLMSNTPDSVPPEELKPYHIRVSKPTDSKAERAHVMYLE
notes: human mitochondrial aspartyl-tRNA synthetase (DARS2), residues 41-645; linker of 5 residues before the C-terminal 6-His tag; Homodimer; also called WT; WT mt-AspRS; not shown: His6, C-terminal, kept
- stoichiometry N [1]: 2

B2: human mt-AspRS mutant R58G (enzyme)
chain: IPEFSSFVVRTNTCGELGSSHLGQEVTLCGWIQYRRQNTFLVLRDFDGLVQVIIPQDESAASVKKILCEAPVESVVQVSGTVISRPAGQENPKMPTGEIEIKVKTAELLNACKKLPFEIKNFVKKTEALRLQYRYLDLRSFQMQYNLRLRSQMVMKMREYLCNLHGFVDIETPTLFKRTPGGAKEFLVPSREPGKFYSLPQSPQQFKQLLMVGGLDRYFQVARCYRDEGSRPDRQPEFTQIDIEMSFVDQTGIQSLIEGLLQYSWPNDKDPVVVPFPTMTFAEVLATYGTDKPDTRFGMKIIDISDVFRNTEIGFLQDALSKPHGTVKAICIPEGAKYLKRKDIESIRNFAADHFNQEILPVFLNANRNWNSPVANFIMESQRLELIRLMETQEEDVVLLTAGEHNKACSLLGKLRLECADLLETRGVVLRDPTLFSFLWVVDFPLFLPKEENPRELESAHHPFTAPHPSDIHLLYTEPKKARSQHYDLVLNGNEIGGGSIRIHNAELQRYILATLLKEDVKMLSHLLQALDYGAPPHGGIALGLDRLICLVTGSPSIRDVIAFPKSFRGHDLMSNTPDSVPPEELKPYHIRVSKPTDSKAERAHVMYLE
notes: human mitochondrial aspartyl-tRNA synthetase (DARS2), residues 41-645, LBSL patient mutation 172C>G (R58G); linker of 5 residues before the C-terminal 6-His tag; Mutation found in LBSL patients; not shown: His6, C-terminal, kept
- stoichiometry N [2]: 2

B3: human mt-AspRS mutant L626Q (enzyme)
chain: IPEFSSFVVRTNTCGELRSSHLGQEVTLCGWIQYRRQNTFLVLRDFDGLVQVIIPQDESAASVKKILCEAPVESVVQVSGTVISRPAGQENPKMPTGEIEIKVKTAELLNACKKLPFEIKNFVKKTEALRLQYRYLDLRSFQMQYNLRLRSQMVMKMREYLCNLHGFVDIETPTLFKRTPGGAKEFLVPSREPGKFYSLPQSPQQFKQLLMVGGLDRYFQVARCYRDEGSRPDRQPEFTQIDIEMSFVDQTGIQSLIEGLLQYSWPNDKDPVVVPFPTMTFAEVLATYGTDKPDTRFGMKIIDISDVFRNTEIGFLQDALSKPHGTVKAICIPEGAKYLKRKDIESIRNFAADHFNQEILPVFLNANRNWNSPVANFIMESQRLELIRLMETQEEDVVLLTAGEHNKACSLLGKLRLECADLLETRGVVLRDPTLFSFLWVVDFPLFLPKEENPRELESAHHPFTAPHPSDIHLLYTEPKKARSQHYDLVLNGNEIGGGSIRIHNAELQRYILATLLKEDVKMLSHLLQALDYGAPPHGGIALGLDRLICLVTGSPSIRDVIAFPKSFRGHDLMSNTPDSVPPEEQKPYHIRVSKPTDSKAERAHVMYLE
notes: human mitochondrial aspartyl-tRNA synthetase (DARS2), residues 41-645, LBSL patient mutation 1876T>A (printed as 626Q in the methods, L626Q elsewhere); linker of 5 residues before the C-terminal 6-His tag; Mutation found in LBSL patients; not shown: His6, C-terminal, kept
- stoichiometry N [2]: 2

B4: human mt-AspRS mutant T136S (enzyme)
chain: IPEFSSFVVRTNTCGELRSSHLGQEVTLCGWIQYRRQNTFLVLRDFDGLVQVIIPQDESAASVKKILCEAPVESVVQVSGTVISRPAGQENPKMPSGEIEIKVKTAELLNACKKLPFEIKNFVKKTEALRLQYRYLDLRSFQMQYNLRLRSQMVMKMREYLCNLHGFVDIETPTLFKRTPGGAKEFLVPSREPGKFYSLPQSPQQFKQLLMVGGLDRYFQVARCYRDEGSRPDRQPEFTQIDIEMSFVDQTGIQSLIEGLLQYSWPNDKDPVVVPFPTMTFAEVLATYGTDKPDTRFGMKIIDISDVFRNTEIGFLQDALSKPHGTVKAICIPEGAKYLKRKDIESIRNFAADHFNQEILPVFLNANRNWNSPVANFIMESQRLELIRLMETQEEDVVLLTAGEHNKACSLLGKLRLECADLLETRGVVLRDPTLFSFLWVVDFPLFLPKEENPRELESAHHPFTAPHPSDIHLLYTEPKKARSQHYDLVLNGNEIGGGSIRIHNAELQRYILATLLKEDVKMLSHLLQALDYGAPPHGGIALGLDRLICLVTGSPSIRDVIAFPKSFRGHDLMSNTPDSVPPEELKPYHIRVSKPTDSKAERAHVMYLE
notes: human mitochondrial aspartyl-tRNA synthetase (DARS2), residues 41-645, LBSL patient mutation 406A>T (T136S); linker of 5 residues before the C-terminal 6-His tag; Mutation found in LBSL patients; not shown: His6, C-terminal, kept
- stoichiometry N [2]: 2

B5: human mt-AspRS mutant L613F (enzyme)
chain: IPEFSSFVVRTNTCGELRSSHLGQEVTLCGWIQYRRQNTFLVLRDFDGLVQVIIPQDESAASVKKILCEAPVESVVQVSGTVISRPAGQENPKMPTGEIEIKVKTAELLNACKKLPFEIKNFVKKTEALRLQYRYLDLRSFQMQYNLRLRSQMVMKMREYLCNLHGFVDIETPTLFKRTPGGAKEFLVPSREPGKFYSLPQSPQQFKQLLMVGGLDRYFQVARCYRDEGSRPDRQPEFTQIDIEMSFVDQTGIQSLIEGLLQYSWPNDKDPVVVPFPTMTFAEVLATYGTDKPDTRFGMKIIDISDVFRNTEIGFLQDALSKPHGTVKAICIPEGAKYLKRKDIESIRNFAADHFNQEILPVFLNANRNWNSPVANFIMESQRLELIRLMETQEEDVVLLTAGEHNKACSLLGKLRLECADLLETRGVVLRDPTLFSFLWVVDFPLFLPKEENPRELESAHHPFTAPHPSDIHLLYTEPKKARSQHYDLVLNGNEIGGGSIRIHNAELQRYILATLLKEDVKMLSHLLQALDYGAPPHGGIALGLDRLICLVTGSPSIRDVIAFPKSFRGHDFMSNTPDSVPPEELKPYHIRVSKPTDSKAERAHVMYLE
notes: human mitochondrial aspartyl-tRNA synthetase (DARS2), residues 41-645, LBSL patient mutation 1837C>T (L613F); linker of 5 residues before the C-terminal 6-His tag; Mutation found in LBSL patients; not shown: His6, C-terminal, kept
- stoichiometry N [2]: 2
